Results: patent US20210332115A1 (Sanofi, published 2021)

Key:
[1] = target: T1, Homo sapiens factor Bb protein (human, UniProt P00751 260-764); test: SPR multi-cycle kinetics; ratio against VH0/Vκ0 on the same chip
T1 construct: Bought from CompTech (A155); also called complement factor Bb; human factor Bb
Procedure: (§1) Antibodies were diluted in running buffer to a final concentration of 0.5 μg/ml. At the start of each cycle, antibodies were loaded onto Fc2, Fc3 and Fc4 of the Protein A chip (GE Healthcare, Little Chalfont, UK). IgGs were captured at a flow rate of 10 μl/min to give an immobilisation level (RL) of ˜63 RU, the theoretical value to obtain an Rmax of ˜50 RU. The surface was then allowed to stabilize. Kinetic data was obtained with factor Bb as analyte and using a flow rate of 30 μl/min to minimize any potential mass transfer effects. Multiple repeats of a blank and a repeat of a single concentration of the analyte were programmed into the kinetic run in order to check the stability of both the surface and analyte over the kinetic cycles. For kinetic analysis, a two-fold dilution range was selected from 12. 5 nM to 0. 391 nM factor Bb. The association phase of factor Bb was monitored for 360 seconds and the dissociation phase was monitored for 600 seconds. Regeneration of the Protein A surface was conducted using two injections of 10 mM glycine-HCL pH 1. 5. The signal from the reference channel Fc1 was subtracted from that of Fc2, Fc3 and Fc4 to correct for differences in non-specific binding to a reference surface, and a global Rmax parameter was used in the 1-to-1 binding model.
(§2) The sensorgrams and fitted data for the binding of chimeric antibodies and humanized variants to factor Bb are shown in FIGS. 4A-4C. The relative KD was calculated by dividing the KD of the humanized variants by that of the chimeric antibody on the same chip. The kinetic parameters measured for the interaction of factor Bb with chimeric antibodies and humanized variants are shown in Table 10.

[2] = target: T1, Homo sapiens factor Bb protein; test: BLI Octet, biotinylated antibody on SA biosensors
Procedure: Briefly, biotinylated antibodies were loaded onto SA Biosensors equilibrated in PBS, 0.1% BSA, 0.02% Tween-20 (assay buffer). After a 60 second baseline in assay buffer, antibodies were loaded onto the probes for 180 seconds, followed by another 60 second baseline. Association to human (Comptech) or cynomolgus monkey factor Bb (purified in-house) was measured for 300 seconds, followed by a 300 second dissociation. Kinetic parameters were calculated by the Octet Analysis software using a 1:1 binding model.

[3] = target: T1, Homo sapiens factor Bb protein; test: SPR multi-cycle kinetics, IgG on Protein A chip, factor Bb analyte
Procedure: as §1, §2

[4] = target: T1, Homo sapiens factor Bb protein; test: SPR single cycle kinetics; ratio against VH0/Vκ0
Procedure: All single cycle kinetic experiments were run at 25° C. with HBS-P+running buffer (pH 7. 4) (GE Healthcare, Little Chalfont, UK).
(§3) Antibodies were diluted in running buffer to a final concentration of 1 μg/ml, based on concentrations assessed by ELISA titer. At the start of each cycle, antibodies were loaded onto Fc2, Fc3 and Fc4 of the Protein A chip (GE Healthcare, Little Chalfont, UK). IgGs were captured at a flow rate of 10 μl/min to give an immobilization level (RL) of ˜63 RU, the theoretical value to obtain an Rmax of ˜50 RU. The surface was then allowed to stabilize. Single cycle kinetic data was obtained with factor Bb (CompTech, Tyler, USA) as the analyte at a flow rate of 30 μl/min to minimize any potential mass transport limitations. Multiple repeats with the reference chimeric antibody were performed to check the stability of the surface and analyte over the kinetic cycles. The signal from the reference channel Fc1 (no antibody) was subtracted from that of Fc2, Fc3 and Fc4 to correct for differences in non-specific binding to a reference surface. A four point, two-fold dilution range from 0. 78 nM to 6. 25 nM factor Bb without regeneration between each concentration was used. The association phase for the four injections of increasing concentrations of factor Bb was monitored for 200 seconds each time and a single dissociation phase was measured for 200 seconds following the last injection of factor Bb. Regeneration of the Protein A surface was conducted using two injections of 10 mM glycine-HCL pH 1. 5.
Single cycle kinetics using cell culture supernatants were performed as described above. […] The relative KD was calculated by dividing the KD of the VH0/Vκ0 reference antibody by that of the humanized variant assayed in the same experiment.

[5] = target: T1, Homo sapiens factor Bb protein; test: cell-based or functional assay
[6] = target: T1, Homo sapiens factor Bb protein; test: SPR single cycle kinetics, IgG on Protein A chip, factor Bb analyte
Procedure: In order to assess the binding of all humanized variants, single cycle kinetic analysis was performed on supernatants from transfected cell cultures. […] All single cycle kinetic experiments were run at 25° C. with HBS-P+running buffer (pH 7. 4) (GE Healthcare, Little Chalfont, UK).
as §3
Single cycle kinetics using cell culture supernatants were performed as described above.

[7] = target: T1, Homo sapiens factor Bb protein; test: competition ELISA on coated factor Bb; competitor murine parental antibody
Procedure: Factor Bb was diluted in 1× PBS to 1.0 μg/ml and 100 μl/well was coated overnight at 4° C. on a 96-well ELISA plate. The following day the plates were blocked for two hours at room temperature with 1% casein/PBS before washing 2× with PBS pH 7.4. In a 96-well dilution plate a fixed concentration of murine parental antibody (0.5 μg/ml, final concentration) was added in equal volume to a four-fold titration series of test antibody (starting from 45 μg/ml to 0.01 μg/ml, final concentration) diluted in blocking buffer. After washing the plate 3× with PBS-T, 100 μl of chimeric/test antibody mix was added to the ELISA plate. After incubating at room temperature for one hour, the plate was washed 3× with PBS-T and 100 μl of anti-mouse IgG Fc-Specific HRP (Sigma, Dorset, UK) diluted 1:1000 in PBS-T was applied for one hour at room temperature to detect bound mouse antibody. For color development, the plate was washed 3× with PBS-T following which 100 μl of TMB substrate was added and incubated for approximately five minutes at room temperature. The reaction was stopped with 50 μl of 3.0 M hydrochloric acid and absorbance was read immediately using a DYNEX ® plate reader at 450 nm.
IC50 values were calculated for each variant and relative IC50 values were calculated by dividing the IC50 of the humanized variant by that of the chimeric antibody assayed on the same plate (Table 11).

T1 sequence (P00751 260-764 limits assumed): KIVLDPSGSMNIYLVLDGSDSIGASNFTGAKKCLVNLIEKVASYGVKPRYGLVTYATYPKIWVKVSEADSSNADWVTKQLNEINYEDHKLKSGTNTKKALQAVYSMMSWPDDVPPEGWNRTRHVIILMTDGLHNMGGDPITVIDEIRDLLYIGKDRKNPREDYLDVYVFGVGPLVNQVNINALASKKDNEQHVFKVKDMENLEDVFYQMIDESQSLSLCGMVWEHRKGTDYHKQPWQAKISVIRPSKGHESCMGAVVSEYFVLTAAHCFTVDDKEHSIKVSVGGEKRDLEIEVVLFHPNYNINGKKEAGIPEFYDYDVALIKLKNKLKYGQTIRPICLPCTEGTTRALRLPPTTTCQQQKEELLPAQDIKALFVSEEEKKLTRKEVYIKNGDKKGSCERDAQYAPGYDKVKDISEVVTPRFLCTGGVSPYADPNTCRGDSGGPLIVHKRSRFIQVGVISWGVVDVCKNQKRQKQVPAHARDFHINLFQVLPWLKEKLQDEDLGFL

Binder | Relative KD [1] | Kd [2] [nM] | Kd [3] [nM] | koff [3] [s⁻¹] | kon [3] [M⁻¹ s⁻¹] | Relative KD [4] | AP Assay IC50 [5] [nM] | Kd [6] [nM] | koff [6] [s⁻¹] | kon [6] [M⁻¹ s⁻¹] | IC50 [7] [nM]
Anti-factor Bb mouse monoclonal antibody (antibody, V domains shown, Mouse monoclonal antibody from a hybridoma; also called murine parental antibody; parent anti-factor Bb antibody) VH: EVQLVESGGALVKPGGSLKLSCAASGFTFSNYAMSWVRQTPEKRLEWVATISNRGSYTYYPDSVKGRFTISRDNAKNTLYLQMSSLRSEDTALYYCARERPMDYWGQGTSVTVSS VL: DIVMTQSHKFMSTSVGDRVSITCKASQDVGTAVAWYQQKPGQSPKLLIYWASTRHTGVPDRFTGSGSGTDFTLTITNVQSEDLAVYFCHQHSSNPLTFGAGTKLELK |  | 1.9 |  |  |  |  |  |  |  |  | 
VH5/Vκ0 (antibody, V domains shown, Control antibody of the redesign round; cloned into the appropriate expression vector (IgG4v1 and kappa were used in the first round), HEK EBNA supernatant) VH: EVQLVESGGGLVKPGGSLRLSCAASGFTFSNYAMSWVRQTPEKRLEWVATISNRGSYTYYPDSVKGRFTISRDNAKNSLYLQMSSLRSEDTALYYCARERPMDYWGQGTSVTVSS VL: DIVMTQSHKFMSTSVGDRVSITCKASQDVGTAVAWYQQKPGQSPKLLIYWASTRHTGVPDRFTGSGSGTDFTLTITNVQSEDLAVYFCHQHSSNPLTFGAGTKLELK |  |  |  |  |  | 235 |  | 416 | 0.00145 | 3490 | 
VH5/Vκ7 (antibody, V domains shown, Redesigned variant; cloned into the appropriate expression vector (IgG4v1 and kappa were used in the first round), HEK EBNA supernatant) VH: EVQLVESGGGLVKPGGSLRLSCAASGFTFSNYAMSWVRQTPEKRLEWVATISNRGSYTYYPDSVKGRFTISRDNAKNSLYLQMSSLRSEDTALYYCARERPMDYWGQGTSVTVSS VL: DIQMTQSPSTLSASVGDRVTITCKASQDVGTAVAWYQQKPGKAPKLLIYWASTRHTGVPDRFSGSGSGTDFTLTISSLQAEDFAVYFCHQHSSNPLTFGQGTKLEIK |  |  |  |  |  | 294 |  | 521 | 0.00166 | 3200 | 
VH7/Vκ6 (antibody, V domains shown, Redesigned variant; cloned into the appropriate expression vector (IgG4v1 and kappa were used in the first round), HEK EBNA supernatant) VH: EVQLVESGGGLVKPGGSLRLSCAASGFTFSNYAMSWVRQTPEKRLEWVATISNRGSYTYYPDSVKGRFTISRDNAKNSLYLQMNSLRAEDTALYYCARERPMDYWGQGTLVTVSS VL: DIVMTQSPSFLSASVGDRVTITCKASQDVGTAVAWYQQKPGKAPKLLIYWASTRHTGVPDRFTGSGSGTDFTLTISSLQSEDFAVYFCHQHSSNPLTFGQGTKLEIK |  |  |  |  |  | 10.2 |  | 18 | 0.00303 | 168000 | 

Next, values leading:

Relative KD [1] | Kd [2] [nM] | Kd [3] [nM] | koff [3] [s⁻¹] | kon [3] [M⁻¹ s⁻¹] | Relative KD [4] | AP Assay IC50 [5] [nM] | Kd [6] [nM] | koff [6] [s⁻¹] | kon [6] [M⁻¹ s⁻¹] | IC50 [7] [nM] | Binder
1.31 | 1.9 | 2.61 | 0.000841 | 322000 | 1.32 | 23 | 2.34 | 0.000903 | 386000 | 0.75 | VH4/Vκ7 (antibody, V domains shown, Redesigned variant; cloned into the appropriate expression vector (IgG4v1 and kappa were used in the first round)) VH: EVQLVESGGGLVKPGGSLRLSCAASGFTFSNYAMSWVRQAPGKRLEWVATISNRGSYTYYPDSVKGRFTISRDNAKNSLYLQMSSLRSEDTALYYCARERPMDYWGQGTSVTVSS VL: DIQMTQSPSTLSASVGDRVTITCKASQDVGTAVAWYQQKPGKAPKLLIYWASTRHTGVPDRFSGSGSGTDFTLTISSLQAEDFAVYFCHQHSSNPLTFGQGTKLEIK
 |  |  |  |  | 4.25 |  | 7.53 | 0.00207 | 274000 |  | VH7/Vκ0 (antibody, V domains shown, Control antibody of the redesign round; cloned into the appropriate expression vector (IgG4v1 and kappa were used in the first round), HEK EBNA supernatant) VH: EVQLVESGGGLVKPGGSLRLSCAASGFTFSNYAMSWVRQTPEKRLEWVATISNRGSYTYYPDSVKGRFTISRDNAKNSLYLQMNSLRAEDTALYYCARERPMDYWGQGTLVTVSS VL: DIVMTQSHKFMSTSVGDRVSITCKASQDVGTAVAWYQQKPGQSPKLLIYWASTRHTGVPDRFTGSGSGTDFTLTITNVQSEDLAVYFCHQHSSNPLTFGAGTKLELK
 |  |  |  |  | 1.86 |  | 3.29 | 0.00197 | 598000 |  | VH6/Vκ0 (antibody, V domains shown, Control antibody of the redesign round; cloned into the appropriate expression vector (IgG4v1 and kappa were used in the first round), HEK EBNA supernatant) VH: EVQLVESGGGLVKPGGSLRLSCAASGFTFSNYAMSWVRQAPGKRLEWVATISNRGSYTYYPDSVKGRFTISRDNAKNSLYLQMNSLRAEDTALYYCARERPMDYWGQGTLVTVSS VL: DIVMTQSHKFMSTSVGDRVSITCKASQDVGTAVAWYQQKPGQSPKLLIYWASTRHTGVPDRFTGSGSGTDFTLTITNVQSEDLAVYFCHQHSSNPLTFGAGTKLELK
2.71 | 1.9 | 5.17 | 0.0013 | 251000 | 2.17 | 19 | 3.84 | 0.00158 | 412000 | 0.93 | VH6/Vκ6 (antibody, V domains shown, Redesigned variant; cloned into the appropriate expression vector (IgG4v1 and kappa were used in the first round)) VH: EVQLVESGGGLVKPGGSLRLSCAASGFTFSNYAMSWVRQAPGKRLEWVATISNRGSYTYYPDSVKGRFTISRDNAKNSLYLQMNSLRAEDTALYYCARERPMDYWGQGTLVTVSS VL: DIVMTQSPSFLSASVGDRVTITCKASQDVGTAVAWYQQKPGKAPKLLIYWASTRHTGVPDRFTGSGSGTDFTLTISSLQSEDFAVYFCHQHSSNPLTFGQGTKLEIK
5.01 | 2.9 | 9.51 | 0.00211 | 222000 | 1.37 | 25 | 2.42 | 0.0117 | 4.83e+06 | 1.43 | VH7/Vκ7 (antibody, V domains shown, Redesigned variant; cloned into the appropriate expression vector (IgG4v1 and kappa were used in the first round); also called VH7/VκK7) VH: EVQLVESGGGLVKPGGSLRLSCAASGFTFSNYAMSWVRQTPEKRLEWVATISNRGSYTYYPDSVKGRFTISRDNAKNSLYLQMNSLRAEDTALYYCARERPMDYWGQGTLVTVSS VL: DIQMTQSPSTLSASVGDRVTITCKASQDVGTAVAWYQQKPGKAPKLLIYWASTRHTGVPDRFSGSGSGTDFTLTISSLQAEDFAVYFCHQHSSNPLTFGQGTKLEIK
